According to publication PMC6200739:

Experiments:
[1] = molecular target: Flag-tagged LDHA containing a nuclear localization signal peptide; assay: SEC
[2] = molecular target: Flag-tagged LDHA containing a nuclear localization signal peptide; assay: cross-linking

## Flag-tagged LDHA containing a nuclear localization signal peptide (enzyme)
[1]
  stoichiometry N: 2
[2]
  stoichiometry N: 2
